Results taken from PMC10833561.
Read-outs that look alike come from different tables or passages of the source.

| Substance | expression_or_secretion (N-glycosylation at N171) | other (N-glycosylation at N171) | expression_or_secretion (N-glycosylation at N202) | other (N-glycosylation at N202) |
| --- | --- | --- | --- | --- |
| SIVmac239 Env (envelope glycoprotein, gp120 V2 apex): T173I (in SIVmac239 K180S) | no change | abolishes | – | – |
| SIVmac239 Env (envelope glycoprotein, gp120): S204G (in SIVmac239 K180S) | – | – | no change | decreases |
